Results published in US20030203373A1 (priority 2002, published 2003).

Target: T1, angiotensin-converting-enzyme derived from pig kidney (pig) (UniProt F1RRW5)
T1 sequence (looked up): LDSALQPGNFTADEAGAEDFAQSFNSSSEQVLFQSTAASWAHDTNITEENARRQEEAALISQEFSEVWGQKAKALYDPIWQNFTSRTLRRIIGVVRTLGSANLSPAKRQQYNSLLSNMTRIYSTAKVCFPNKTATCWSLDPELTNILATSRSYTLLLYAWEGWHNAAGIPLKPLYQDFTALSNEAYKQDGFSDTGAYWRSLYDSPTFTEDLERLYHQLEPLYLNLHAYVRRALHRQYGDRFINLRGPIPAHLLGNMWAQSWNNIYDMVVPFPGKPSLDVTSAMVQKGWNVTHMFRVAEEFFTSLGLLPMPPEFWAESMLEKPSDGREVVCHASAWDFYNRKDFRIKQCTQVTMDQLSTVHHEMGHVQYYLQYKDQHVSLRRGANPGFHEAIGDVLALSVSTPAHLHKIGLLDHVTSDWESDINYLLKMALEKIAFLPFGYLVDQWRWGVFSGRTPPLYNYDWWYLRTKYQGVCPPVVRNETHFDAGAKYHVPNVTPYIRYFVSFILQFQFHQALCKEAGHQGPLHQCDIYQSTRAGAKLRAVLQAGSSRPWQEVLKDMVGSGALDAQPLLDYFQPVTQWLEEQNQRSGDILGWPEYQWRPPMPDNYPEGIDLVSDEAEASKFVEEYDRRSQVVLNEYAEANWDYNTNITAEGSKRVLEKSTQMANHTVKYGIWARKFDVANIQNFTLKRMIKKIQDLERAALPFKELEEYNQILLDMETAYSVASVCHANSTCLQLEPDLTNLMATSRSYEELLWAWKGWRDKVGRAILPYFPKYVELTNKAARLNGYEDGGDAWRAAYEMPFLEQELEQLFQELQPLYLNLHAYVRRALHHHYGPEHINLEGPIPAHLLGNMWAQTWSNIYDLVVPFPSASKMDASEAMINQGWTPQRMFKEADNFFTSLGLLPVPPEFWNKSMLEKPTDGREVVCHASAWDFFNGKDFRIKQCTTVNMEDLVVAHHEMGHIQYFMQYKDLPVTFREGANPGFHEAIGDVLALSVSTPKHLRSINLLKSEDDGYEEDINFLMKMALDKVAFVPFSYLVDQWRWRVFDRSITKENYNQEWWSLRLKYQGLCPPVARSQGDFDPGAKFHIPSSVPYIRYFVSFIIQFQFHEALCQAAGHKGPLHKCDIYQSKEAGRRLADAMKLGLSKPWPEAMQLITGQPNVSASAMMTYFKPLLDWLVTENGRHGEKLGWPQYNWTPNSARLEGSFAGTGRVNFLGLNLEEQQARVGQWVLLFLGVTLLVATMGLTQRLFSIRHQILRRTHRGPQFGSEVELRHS
Assay: cell-based or functional assay

In the case of Peptid S547 (SPLPEVPP) (peptide), the % inhibition at 0.39 µM, A is reported as 10.2%, the % inhibition at 0.39 µM, B is reported as 6.82% and the % inhibition at 0.39 µM, C is reported as 6.02%. It also gave a % inhibition at 0.39 µM, D of 0.575%, a % inhibition at 0.78125 µM, A of 9.62% and a % inhibition at 0.78125 µM, B of 10%. It also gave a % inhibition at 0.78125 µM, C of 7.72%, a % inhibition at 0.78125 µM, D of 10.8% and a % inhibition at 1.5625 µM, A of 13.4%. The % inhibition at 1.5625 µM, B was 14.9%, the % inhibition at 1.5625 µM, C was 9.3% and the % inhibition at 1.5625 µM, D was 12.9%. The % inhibition at 3.125 µM, A was 21.8%, the % inhibition at 3.125 µM, B was 18% and the % inhibition at 3.125 µM, C was 16%. The % inhibition at 3.125 µM, D was 11.6%, the % inhibition at 6.25 µM, A was 31.4% and the % inhibition at 6.25 µM, B was 29.2%. For the same substance, the % inhibition at 6.25 µM, C was 28%, the % inhibition at 6.25 µM, D was 25.7% and the % inhibition at 12.5 µM, A was 36.6%. It also gave a % inhibition at 12.5 µM, B of 36.5%, a % inhibition at 12.5 µM, C of 35.3% and a % inhibition at 12.5 µM, D of 34.5%. For the same substance, the % inhibition at 25 µM, A was 52%, the % inhibition at 25 µM, B was 46.2% and the % inhibition at 25 µM, C was 49.3%. For the same substance, the % inhibition at 50 µM, A was 67.1%, the % inhibition at 50 µM, B was 65% and the % inhibition at 50 µM, C was 63.6%. It also gave a % inhibition at 50 µM, D of 56%, a % inhibition at 100 µM, A of 79.8% and a % inhibition at 100 µM, B of 78.4%. The % inhibition at 100 µM, C was 78.4%, the % inhibition at 100 µM, D was 78% and the % inhibition at 200 µM, A was 89.6%. It also gave a % inhibition at 200 µM, B of 89.4%, a % inhibition at 200 µM, C of 88.5% and a % inhibition at 200 µM, D of 88.6%. For the same substance, the fluorescence at 0.39 µM, A was 934000, the fluorescence at 0.39 µM, B was 969000 and the fluorescence at 0.39 µM, C was 977000. For the same substance, the fluorescence at 0.39 µM, D was 1.03e+06, the fluorescence at 0.78125 µM, A was 940000 and the fluorescence at 0.78125 µM, B was 935000. The fluorescence at 0.78125 µM, C was 959000, the fluorescence at 0.78125 µM, D was 928000 and the fluorescence at 1.5625 µM, A was 900000. It also gave a fluorescence at 1.5625 µM, B of 885000, a fluorescence at 1.5625 µM, C of 943000 and a fluorescence at 1.5625 µM, D of 906000. For the same substance, the fluorescence at 3.125 µM, A was 814000, the fluorescence at 3.125 µM, B was 853000 and the fluorescence at 3.125 µM, C was 874000. For the same substance, the fluorescence at 3.125 µM, D was 919000, the fluorescence at 6.25 µM, A was 715000 and the fluorescence at 6.25 µM, B was 737000. For the same substance, the fluorescence at 6.25 µM, C was 750000, the fluorescence at 6.25 µM, D was 773000 and the fluorescence at 12.5 µM, A was 661000. It also gave a fluorescence at 12.5 µM, B of 662000, a fluorescence at 12.5 µM, C of 674000 and a fluorescence at 12.5 µM, D of 683000. For the same substance, the fluorescence at 25 µM, A was 502000, the fluorescence at 25 µM, B was 562000 and the fluorescence at 25 µM, C was 530000. The fluorescence at 25 µM, D was 560000, the fluorescence at 50 µM, A was 346000 and the fluorescence at 50 µM, B was 367000. The fluorescence at 50 µM, C was 382000, the fluorescence at 50 µM, D was 460000 and the fluorescence at 100 µM, A was 214000. It also gave a fluorescence at 100 µM, B of 229000, a fluorescence at 100 µM, C of 229000 and a fluorescence at 100 µM, D of 233000. For the same substance, the fluorescence at 200 µM, A was 113000, the fluorescence at 200 µM, B was 116000 and the fluorescence at 200 µM, C was 125000. It also gave a fluorescence at 200 µM, D of 124000.
